Data published in publication PMC5622162, “PLPP/CIN Regulates Seizure Activity by the Differential Modulation of Calsenilin Binding to GluN1 and Kv4.2 in Mice” (Frontiers in Molecular Neuroscience, 2017).

Target: T1, calsenilin (CSEN), endogenous in mouse hippocampus or brain (mouse (endogenous in hippocampus), UniProt Q9QXT8 1-256)
T1 construct: calsenilin (CSEN, DREAM, KChIP3), endogenous mouse protein; a mixture of phosphorylated and dephosphorylated forms in the lysate; The state of phosphorylation differs with genotype and treatment; also called pCSEN; DREAM; source: endogenous, mouse hippocampus lysate (RIPA); crude extracts of PLPP/CIN-/- mouse brain
T1 sequence (looked up): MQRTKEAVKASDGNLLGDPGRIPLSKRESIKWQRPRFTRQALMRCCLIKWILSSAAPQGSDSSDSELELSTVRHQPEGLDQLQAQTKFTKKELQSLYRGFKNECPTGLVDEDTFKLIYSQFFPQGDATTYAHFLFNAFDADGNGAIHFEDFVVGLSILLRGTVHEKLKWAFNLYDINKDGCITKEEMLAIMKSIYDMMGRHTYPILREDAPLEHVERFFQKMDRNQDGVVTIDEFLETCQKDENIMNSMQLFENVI
Assay: co-IP; in vitro: recombinant PLPP/CIN (10 ng/ul) added to crude extracts of PLPP/CIN^-/- mouse brain at 30°C for 1 h; co-precipitation with endogenous CSEN and western blot
Details: one partner purified

B1: recombinant human pyridoxal-5'-phosphate phosphatase/chronophin (PLPP/CIN) (enzyme, UniProt Q96GD0 1-296, looked up)
chain: MARCERLRGAALRDVLGRAQGVLFDCDGVLWNGERAVPGAPELLERLARAGKAALFVSNNSRRARPELALRFARLGFGGLRAEQLFSSALCAARLLRQRLPGPPDAPGAVFVLGGEGLRAELRAAGLRLAGDPSAGDGAAPRVRAVLVGYDEHFSFAKLREACAHLRDPECLLVATDRDPWHPLSDGSRTPGTGSLAAAVETASGRQALVVGKPSPYMFECITENFSIDPARTLMVGDRLETDILFGHRCGMTTVLTLTGVSRLEEAQAYLAAGQHDLVPHYYVESIADLTEGLED
notes: pyridoxal-5'-phosphate phosphatase/chronophin (PLPP/CIN), human, recombinant protein from Abcam; the words 'full-length recombinant human' stand before CSEN and are read as holding for PLPP/CIN too; source: bought: Abcam (recombinant)
  binding of CSEN with CK1 left in the presence of PLPP/CIN, fold of vehicle: 0.68 fold of vehicle level
